Results: patent publication US20220411840A1, “High Efficiency Template-Free Enzymatic Synthesis of Polynucleotides” (DNA Script, priority 2019, published 2022)

B1: M55: ACT-TdT variant: SEQ ID NO: 1 with substitutions A17V+Q37E+D41R+L52F+G57E+M63R+S94R+G98E+A108V+S146E+K147R+Q149R+C173G+M184T+R207L+K209H+M210Q+G284L+E289A+R325V+E328K+N345E+R351K (protein)
chain: NSSPSPVPGSQNVPAPVVKKISQYACQRRTTLNNYNELFTRALDILAENDEFRENEESCLAFRRASSVLKSLPFPITSMKDTEGIPCLGDKVKRIIEEIIEDGESSEVKAVLNDERYKSFKLFTSVFGVGLKTAEKWFRMGFRTLERIRSDKSLRFTQMQKAGFLYYEDLVSGVNRPEAEAVSTLVKEAVVTFLPDALVTMTGGFRLGHQTGHDVDFLITSPEATEDEEQQLLHKVTDFWKQQGLLLYCDILESTFEKFKQPSRKVDALDHFQKCFLILKLDHLRVHSAKSGQQEGKGWKAIRVDLVMCPYDRRAFALLGWTGSVQFKRDLRRYATHERKMMLDEHALYDKTKRVFLEAESEEEIFAHLGLDYIEPWERNA
modifications: truncated mouse TdT
B2: M56: G-TdT variant: SEQ ID NO: 1 with substitutions A17V+Q37E+D41R+L52F+G57E+M63R+I76V+S94R+G98E+A108V+S146E+Q149R+C173G+M184T+R207L+K209H+F259E+Q261R+K265G+G284L+E289A+R325V+E328N+R351K (protein)
chain: NSSPSPVPGSQNVPAPVVKKISQYACQRRTTLNNYNELFTRALDILAENDEFRENEESCLAFRRASSVLKSLPFPVTSMKDTEGIPCLGDKVKRIIEEIIEDGESSEVKAVLNDERYKSFKLFTSVFGVGLKTAEKWFRMGFRTLEKIRSDKSLRFTQMQKAGFLYYEDLVSGVNRPEAEAVSTLVKEAVVTFLPDALVTMTGGFRLGHMTGHDVDFLITSPEATEDEEQQLLHKVTDFWKQQGLLLYCDILESTFEKEKRPSRGVDALDHFQKCFLILKLDHLRVHSAKSGQQEGKGWKAIRVDLVMCPYDRRAFALLGWTGSVQFNRDLRRYATHERKMMLDNHALYDKTKRVFLEAESEEEIFAHLGLDYIEPWERNA
modifications: truncated mouse TdT

Legend:
[1] = test system: polyT primer (5′-TTTTTTTTTTTTTTTTTTTT (20T), SEQ ID NO: 8); assay: Incorporation of 3′-O-azidomethyl nucleoside triphosphates (AM-dNTPs) by TdT variants on primer polyT in solution; format: biochemical; conditions: 1 uM primer, 2 uM TdT variant, 80 uM AM-dNTP, 10% DMSO, 5 min at 37° C.
[2] = test system: synGG primer (5′-TGTGAGAGTGAAATGAGG, SEQ ID NO: 7); assay: Incorporation of 3′-O-azidomethyl nucleoside triphosphates (AM-dNTPs) by TdT variants on primer synGG in solution; format: biochemical; conditions: 1 uM primer, 2 uM TdT variant, 80 uM AM-dNTP, 10% DMSO, 5 min at 37° C.

Row | Molecule | Percentage of AM-dNTP Incorporation (percentage of extended primers) ([1]; AM-dNTP: A) [%] | Percentage of AM-dNTP Incorporation (percentage of extended primers) ([1]; AM-dNTP: C) [%] | Percentage of AM-dNTP Incorporation (percentage of extended primers) ([1]; AM-dNTP: G) [%] | Percentage of AM-dNTP Incorporation (percentage of extended primers) ([1]; AM-dNTP: T) [%] | Percentage of AM-dNTP Incorporation (percentage of extended primers) ([2]; AM-dNTP: A) [%] | Percentage of AM-dNTP Incorporation (percentage of extended primers) ([2]; AM-dNTP: C) [%] | Percentage of AM-dNTP Incorporation (percentage of extended primers) ([2]; AM-dNTP: G) [%] | Percentage of AM-dNTP Incorporation (percentage of extended primers) ([2]; AM-dNTP: T) [%]
1 | B1 | 15 | 69 | 12 | 61 | 74 | 86 | 30 | 76
2 | B2 | 0 | 27 | 15 | 52 | 4 | 68 | 65 | 71
